Consider five molecules from US20220025003A1, “REAGENTS AND METHODS FOR CONTROLLING PROTEIN FUNCTION AND INTERACTION” (University of Washington, priority 2018, published 2022).

Data set [1] concerns the target T1, NS3a/grazoprevir complex (Hepatitis C virus genotype 1a, UniProt P27958, C1073S/C1078L/C1185S/I1043Q/I1044E/I1098T/L1039E/L1040E/L1047Q/L1179I/N1200S/P1112Q/Q1106K/T1100M/T1173A).
T1 construct: made in house; host or cells: E. coli BL21 (DE3), pDW363 with BirA
Briefly: Yeast surface display binding and titration. To be noted: for Fold drug specificity: danoprevir/NS3a over grazoprevir/NS3a; for relative binding / Kd: yeast-displayed design, NS3a/grazoprevir complex; for Kd: apparent, read-out: KD (nM) ± standard deviation. More on the design: key to relative binding: +: Relative binding of different NS3a/inhibitor complexes is given for conditions where binding was too weak to achieve full titration curves on yeast, indicating binding in the low-to-mid micromolar-range, or weaker.; ++: Relative binding of different NS3a/inhibitor complexes is given for conditions where binding was too weak to achieve full titration curves on yeast, indicating binding in the low-to-mid micromolar-range, or weaker.; +++: Relative binding of different NS3a/inhibitor complexes is given for conditions where binding was too weak to achieve full titration curves on yeast, indicating binding in the low-to-mid micromolar-range, or weaker. The source says: (§1) ; these sorts are denoted as “avid” below. […] See FIG. 30a for yeast gating strategies.
(§2) […]. Curves were fit using Graphpad Prism 5 to a one-site specific binding model with Hill coefficient.

Data set [2] has as its target T2, NS3a/danoprevir complex (Hepatitis C virus genotype 1a, UniProt P27958, C1073S/C1078L/C1185S/I1043Q/I1044E/I1098T/L1039E/L1040E/L1047Q/L1179I/N1200S/P1112Q/Q1106K/T1100M/T1173A).
T2 construct: made in house; host or cells: E. coli BL21 (DE3), pDW363 with BirA
In words: Yeast surface display binding and titration. Particulars: for binding to NS3a/danoprevir complex: yeast surface display; for relative binding / Kd: yeast-displayed design, NS3a/danoprevir complex; for Kd: apparent, read-out: KD (nM) ± standard deviation; for Fold drug specificity: grazoprevir/NS3a over danoprevir/NS3a. The arrangement: key to relative binding: +: Relative binding of different NS3a/inhibitor complexes is given for conditions where binding was too weak to achieve full titration curves on yeast, indicating binding in the low-to-mid micromolar-range, or weaker.; ++: Relative binding of different NS3a/inhibitor complexes is given for conditions where binding was too weak to achieve full titration curves on yeast, indicating binding in the low-to-mid micromolar-range, or weaker.; +++: Relative binding of different NS3a/inhibitor complexes is given for conditions where binding was too weak to achieve full titration curves on yeast, indicating binding in the low-to-mid micromolar-range, or weaker.
Description: as §1, §2

Data set [3] has as its target T3, NS3a/asunaprevir complex (Hepatitis C virus genotype 1a, UniProt P27958, C1073S/C1078L/C1185S/I1043Q/I1044E/I1098T/L1039E/L1040E/L1047Q/L1179I/N1200S/P1112Q/Q1106K/T1100M/T1173A).
T3 construct: made in house; host or cells: E. coli BL21 (DE3), pDW363 with BirA
Briefly: Yeast surface display binding and titration. More on the design: key to relative binding: +: Relative binding of different NS3a/inhibitor complexes is given for conditions where binding was too weak to achieve full titration curves on yeast, indicating binding in the low-to-mid micromolar-range, or weaker.; ++: Relative binding of different NS3a/inhibitor complexes is given for conditions where binding was too weak to achieve full titration curves on yeast, indicating binding in the low-to-mid micromolar-range, or weaker.; +++: Relative binding of different NS3a/inhibitor complexes is given for conditions where binding was too weak to achieve full titration curves on yeast, indicating binding in the low-to-mid micromolar-range, or weaker. To be noted: for relative binding / Kd: yeast-displayed design, NS3a/asunaprevir complex; for Kd: apparent, read-out: KD (nM) ± standard deviation.
Description: as §1, §2

In data set [4] the test system is NS3a in NIH3T3 cells. In words: Confocal microscopy for colocalization analysis (fixed cells). In kind it is cell-based. Particulars: 5 μM drug, 15 min.
For data set [5], the system named is PI3K-Akt signaling in COS-7 cells. In words: AKT Western blots. In kind it is cell-based. To be noted: DNCR2 fused to inter-SH2 domain of p85, danoprevir. As to the method:
COS-7 cells (ATCC), were plated in 24-well plates at 2×10^5 cells/mL (0.5 mL volume). […] One day after transfection, cells were washed once with DPBS, and media was replaced with serum-free DMEM. After serum-starving for 22 hours, cells were exposed to a 15-min drug treatment using 12, 3-fold dilutions of danoprevir from 5 μM to 0 μM, in triplicate. After drug treatment, cells were washed once in DPBS, then lysed in 50 μL modified RIPA buffer (50 mM Tris-HCl, pH 7.8, 1% v/v IGEPAL CA-630, 150 mM NaCl, 1 mM EDTA, 1× Pierce Protease Inhibitor Tablet) for 30 minutes on ice. Cell debris was cleared by centrifugation at […] for 10 min at 4° C. Lysate was mixed with protein loading dye and denatured at 95° C. for 7 minutes then run on an SDS-PAGE gel (Criterion, Bio-Rad) and transferred to nitrocellulose. Blocking and primary antibody incubations were done in a 1:1 mix of TBS plus 0.1% v/v Tween-20 (TBST) and blocking buffer (Odyssey). Primary antibodies used were pSER473 AKT (1:2000, Cell Signaling Technologies #4060), and pan-AKT (1:2000, Cell Signaling Technologies #2920). […]

Data set [6] concerns the target T4, apo NS3a (Hepatitis C virus genotype 1a, UniProt P27958, C1073S/C1078L/C1185S/I1043Q/I1044E/I1098T/L1039E/L1040E/L1047Q/L1179I/N1200S/P1112Q/Q1106K/T1100M/T1173A).
T4 construct: made in house; host or cells: E. coli BL21 (DE3), pDW363 with BirA
In words: Yeast surface display binding.
Description: as §1, §2

For data set [7] the following is noted: 100 μM free drug unable to disrupt DNCR2/danoprevir/NS3a complex on yeast.
Setting [8] is: danoprevir/NS3a over asunaprevir/NS3a.
Where [9] appears, read: grazoprevir/NS3a over asunaprevir/NS3a.

Residue numbers refer to the chain shown, from its start. Values joined by “and” are separate entries in the source; they are usually repeats but may differ in a detail not shown here. Equal values may be shown once. Bounds are passed on as bounds.

B1: D5: computational design on DHR79 scaffold binding danoprevir/NS3a complex, SEQ ID NO: 10 (protein)
chain: SSDEEEARELIERAKEAAERAQEAAERTGDPRVRELARELKRLAQEAAEEVKRDPSSSDVNEALKLIVEAIEAAVDALEAAERTGDPEVRELARELVRLAVEAAEEVQRNPSSSDVNEALLTIVIAIEAAVNALEAAERTGDPEVRELARELVRLAVEAAEEVQRNPSSREVNIALWKIVLAIQEAVESLREAEESGDPEKREKARERVREAVERAEEVQRDPSGWLNH
In the case of B1, the Fold drug specificity result is listed as “none” in data set [1] and “modest” in data set [3] (setting [8]). Further, the figures for the relative binding result in data set [1], in data set [2] and in data set [3] were “+++”, “++” and “+”, respectively. In addition, the “binding to NS3a/danoprevir complex” value in data set [2] is “modest, drug-dependent binding”.

B2: ANR—BFP-CAAX: plasma membrane-targeted ANR-BFP fusion (protein)
chain: MGELDELVYLLDGPGYDPIHSDGSGTGSGTGSGTGTTSGTGTGGSTGGELDELVYLLDGPGYDPIHSDGSGTGSGTGSGTGTTSGTGTGGSTGEQKLISEEDLGSGSSELIKENMHMKLYMEGTVDNHHFKCTSEGEGKPYEGTQTMRIKVVEGGPLPFAFDILATSFLYGSKTFINHTQGIPDFFKQSFPEGFTWERVTTYEDGGVLTATQDTSLQDGCLIYNVKIRGVNFTSNGPVMQKKTLGWEAFTETLYPADGGLEGRNDMALKLVGGSHLIANIKTTYRSKKPAKNLKMPGVYYVDYRLERIKEANNETYVEQHEVAVARYCDLPSKLGHKLNRKHKEKMSKDGKKKKKKSKTKCVIM
As for B2, the “Colocalization of NS3a-mCherry with ANR-BFP-CAAX or NLS-DNCR2-EGFP” value in data set [4] is on record as “pre-localized NS3a-mCherry™ to the plasma membrane”.

B3: DNCR2: danoprevir/NS3a complex reader, final variant with 14 mutations from D5, SEQ ID NO: 8 (protein)
chain: SSDEEEARELIERAKEAAERAQEAAERTGDPRVRELARELKRLAQEAAEEVKRDPSSSDVNEALKLIVEAIEAAVDALEAAERTGDPEVRELARELVRLAVEAAEEVQRNPSSSDVNEALHSIVYAIEAAIFALEAAERTGDPEVRELARELVRLAVEAAEEVQRNPSSRNVEHALMRIVLAIYLAEENLREAEESGDPEKREKARERVREAVERAEEVQRDPSGWLNH
Regarding B3, the PI3K-Akt signaling activation entry in data set [5] is “capable of activating PI3K-Akt signaling”. Further, the results for the Kd in data set [1], in data set [2] and in data set [3] were 2000 ± 100 nM, 0.036 ± 0.0002 nM and 770 ± 50 nM, respectively. Besides, the results for the Fold drug specificity in data set [1] and in data set [3] (setting [8]) were 56,000 fold and 21,000 fold, respectively. The “specificity over NS3a bound to the drugs grazoprevir or asunaprevir” value in data set [2] was > 20,000 fold. Further, the “binding to apo NS3a” value in data set [6] is “no detectable binding”. Also, the “binding to danoprevir alone” value in data set [7] was “does not appear to bind substantially to danoprevir alone”.

B4: G3: computational design on DHR18 scaffold binding grazoprevir/NS3a complex, SEQ ID NO: 12 (protein)
chain: DIEKLCKKAEEEAKEAQEKADELRQRHPDSQAAEDAEDLANEAEAAVLAACSLAQEHPNADIAKLCIKAASEAAEAASKAAELAQRHPDSQAARDAIKLASQAARAVILAIMLAAENPNADIAKLCIKAASEAAEAASKAAELAQRHPDSQAARDAIKLASQAAEAVERAIWLAAENPNADIAKKCIKAASEAAEEASKAAEEAQRHPDSQKARDEIKEASQKAEEVKERCKS
For the molecule B4, the “binding to NS3a/grazoprevir complex” value in data set [1] (yeast surface display) was “modest, grazoprevir-dependent binding”. Besides, the “specificity for binding grazoprevir/NS3a over NS3a with danoprevir or asunaprevir, or apo NS3a” value in data set [1] (yeast surface display) is “high specificity”. For the same molecule, the relative binding entry in data set [1] is “++”; in data set [2] it was “no binding”; in data set [3], “+”. For the same molecule, the Fold drug specificity result is reported as “high” in data set [2] and “modest” in data set [3] (setting [9]).

B5: GNCR1: grazoprevir/NS3a complex reader 1, 4 mutations from G3, SEQ ID NO: 11 (protein)
chain: B4 chain with E42L, E44V, A49T, S52L
Turning to B5, the Kd was 140 nM and < 200 nM in data set [1]; more than 10000 nM in data set [2]; more than 10000 nM in data set [3]. Also, the “specificity for binding grazoprevir/NS3a over NS3a with danoprevir or asunaprevir, or apo NS3a” value in data set [1] (yeast surface display) is “high specificity”. Further, the Fold drug specificity in data set [2] and in data set [3] (setting [9]) was more than 71 fold each time. In addition, the “binding to NS3a/danoprevir complex” value in data set [2] is recorded as “little-to-no affinity”. In addition, in data set [3] (yeast surface display), the “binding to asunaprevir-bound NS3a” value is given as “little-to-no affinity”. In addition, the “binding to apo NS3a” value in data set [6] is on record as “little-to-no affinity”.
